The values that follow come from patent US6713294B1, “DNA glycosylases and their use” (priority 1996, dated 2004).

The chains are these.
B1: Tyr147Phe: human UDG (UNGΔ84) mutant with Tyr147 replaced by Phe (protein)
chain: MGVFCLGPWGLGRKLRTPGKGPLQLLSRLCGDHLQAIPAKKAPAGQEEPGTPPSSPLSAEQLDRIQRNKAAALLRLAARNVPVGFGESWKKHLSGEFGKPYFIKLMGFVAEERKHYTVYPPPHQVFTWTQMCDIKDVKVVILGQDPFHGPNQAHGLCFSVQRPVPPPPSLENIYKELSTDIEDFVHPGHGDLSGWAKQGVLLLNAVLTVRAHQANSHKERGWEQFTDAVVSWLNQNSNGLVFLLWGSYAQKKGSAIDRKRHHVLQTAHPSPLSVYRGFFGCRHFSKTNELLQKSGKKPIDWKEL
B2: Gln144Leu: human UDG (UNGΔ84) mutant with Gln144 replaced by Leu (protein)
chain: B1 chain with Q144L, F147Y
B3: Asn204Gln: human UDG (UNGΔ84) mutant with Asn204 replaced by Gln (protein)
chain: B1 chain with F147Y, N204Q
B4: Asp145Glu: human UDG (UNGΔ84) mutant with Asp145 replaced by Glu (protein)
chain: B1 chain with D145E, F147Y
B5: Ser169Ala: human UDG (UNGΔ84) mutant with Ser169 replaced by Ala (protein)
chain: B1 chain with F147Y, S169A
B6: His268Leu: human UDG (UNGΔ84) mutant with His268 replaced by Leu (protein)
chain: B1 chain with F147Y, H268L
B7: Asp145Asn: human UDG (UNGΔ84) mutant with Asp145 replaced by Asn (protein)
chain: B1 chain with D145N, F147Y

Where a chain is given by its changes, count along the chain named.

The test system of one data set is [^3H]dUMP-labelled DNA. The data set is described as follows: Release of uracil from ds or ss [3H]dUMP-labelled DNA. It is filed as biochemical. The settings on record: double-stranded uracil DNA, 2 μM, 10 min, 37° C.; 0 = below detection limit (10 pmol per mg protein per min). On the procedure:
(§1) To test enzymatic substrate specificities, 250 ng purified human “wild type” UDG (UNGΔ84), UNGΔ84Tyr147Ala or UNGΔ84Asn204Asp, were mixed with 200 ng ds- or ss-[^3H]cytosine-labelled DNA (150 mCi/mmol), or ds- or ss-[^3H]thymine-labelled DNA (100 mCi/mmol) in 10 mM NaCl, 20 mM Tris-HCl (pH 7.5), 1 mM EDTA, 1 mM dithiothreitol and 0.5 mg/ml bovine serum albumin (final concentrations) in 20 μl separate reactions. The final concentrations of the [^3H]cytosine-DNA (C) and [^3H]thymine-DNA (T) substrates were 6.5 μM and 10 μM, respectively. Release of radioactivity as a function of time was measured at 37° C. These conditions are later referred to as standard conditions. Substrate synthesis and processing of samples for scintillation counting were as described in Krokan and Wittwer (1981) Nucl. Acids Res., 9: 2599-2613. Single-stranded substrate was generated by boiling double-stranded substrate for 10 min, followed by rapid cooling on ice.
(§2) For measuring release of uracil from double-stranded (U-ds) or single-stranded (U-ss) DNA the various mutant enzymes (prepared as described in Example 1 and by analogous site-directed mutagenesis methods and identical expression and purification methods) were incubated with 200 ng ds- or ss-[^3H]dUMP-labelled DNA (500 mCi/mmol, 2 μM final concentration) in 20 μl separate reactions for 10 min under standard conditions as described in Example 1. For measuring release of [^3H]cytosine or [^3H]thymine, assays were performed as described in Example 1 using an incubation time of 10 min. Uracil inhibition was analysed by adding 5 mM uracil (final concentration) to a standard U-ds assay. 0 activity indicates activity below detection limit (10 pmol per mg protein per min) with 100 ng enzyme and 200 ng DNA substrate at standard conditions.
Take B1: the “U-ds, pmol excised per min per mg protein” value is reported as 3.2 × 10^7 pmol excised per min per mg protein.
Still for that read-out and setting: next, B2: 3.4 × 10^4 pmol excised per min per mg protein; B3: 1.5 × 10^6 pmol excised per min per mg protein.
Still for that read-out and setting: next, B4: 5.5 × 10^4 pmol excised per min per mg protein; B5: 3.1 × 10^6 pmol excised per min per mg protein; B6: 1.3 × 10^5 pmol excised per min per mg protein.
Take B7: the “U-ds, pmol excised per min per mg protein” value is on record as 1.4 × 10^4 pmol excised per min per mg protein.

The same data set, now with this note: single-stranded uracil DNA, 2 μM, 10 min, 37° C.; 0 = below detection limit.
Take B1: the “U-ss, pmol excised per min per mg protein” value (from here on “U-ss, pmol excised per min”) was 6.3 × 10^7 pmol excised per min per mg protein.
Same read-out and setting: the result for B2 reads 4.8 × 10^4 pmol excised per min per mg protein.
Same read-out and setting: the result for B3 reads 2.2 × 10^6 pmol excised per min per mg protein; that for B4, 8.5 × 10^4 pmol excised per min per mg protein.
Take B5: the “U-ss, pmol excised per min” value was 5.6 × 10^6 pmol excised per min per mg protein.
As for B6, the “U-ss, pmol excised per min” value is on record as 2.6 × 10^5 pmol excised per min per mg protein.
Regarding B7, the “U-ss, pmol excised per min” value is 1.1 × 10^4 pmol excised per min per mg protein.

A further data set relates to [^3H]cytosine-labelled DNA. Kind of data set: Release of [3H]cytosine from ds or ss labelled DNA. It is filed as biochemical. The settings on record: double-stranded cytosine DNA, 6.5 μM, 10 min; 0 = below detection limit. As for the experimental part:
as §1, §2
In the case of B1, the “C-ds, pmol excised per min per mg protein” value (“C-ds, pmol excised per min” for short) is 0 pmol excised per min per mg protein.
Regarding B2, the “C-ds, pmol excised per min” value is 0 pmol excised per min per mg protein.
The same measure, in the same setting: next, B3: 0 pmol excised per min per mg protein.
For B4, the “C-ds, pmol excised per min” value is given as 0 pmol excised per min per mg protein.
As to B5, the “C-ds, pmol excised per min” value was 0 pmol excised per min per mg protein.
As to B6, the “C-ds, pmol excised per min” value is 0 pmol excised per min per mg protein.
In the case of B7, the “C-ds, pmol excised per min” value was 0 pmol excised per min per mg protein.

Still in this data set, the particulars now being: single-stranded cytosine DNA, 6.5 μM, 10 min; 0 = below detection limit.
Consider B1, for which the “C-ss, pmol excised per min per mg protein” value (“C-ss, pmol excised per min” for short) was 0 pmol excised per min per mg protein.
Same read-out and setting: the result for B2 reads 0 pmol excised per min per mg protein.
Regarding B3, the “C-ss, pmol excised per min” value is 0 pmol excised per min per mg protein.
In the case of B4, the “C-ss, pmol excised per min” value is reported as 0 pmol excised per min per mg protein.
As for B5, the “C-ss, pmol excised per min” value is recorded as 0 pmol excised per min per mg protein.
The same measure, in the same setting: the result for B6 reads 0 pmol excised per min per mg protein; that for B7, 0 pmol excised per min per mg protein.

In the next data set the test system is [^3H]thymine-labelled DNA. The data set is described as follows: Release of [3H]thymine from ds or ss labelled DNA. It is filed as biochemical. The settings on record: double-stranded thymine DNA, 10 μM, 10 min; 0 = below detection limit. As for the experimental part: as §1, §2
For B1, the “T-ds, pmol excised per min per mg protein” value (“T-ds, pmol excised per min” for short) is 0 pmol excised per min per mg protein.
Take B2: the “T-ds, pmol excised per min” value is given as 0 pmol excised per min per mg protein.
In the case of B3, the “T-ds, pmol excised per min” value was 0 pmol excised per min per mg protein.
Same read-out and setting: the result for B4 reads 0 pmol excised per min per mg protein; that for B5, 0 pmol excised per min per mg protein; that for B6, 0 pmol excised per min per mg protein.
Still for that read-out and setting: the result for B7 reads 0 pmol excised per min per mg protein.

The same data set, now with this note: single-stranded thymine DNA, 10 μM, 10 min; 0 = below detection limit.
Consider B1, for which the “T-ss, pmol excised per min per mg protein” value (“T-ss, pmol excised per min” for short) is 0 pmol excised per min per mg protein.
For B2, the “T-ss, pmol excised per min” value was 0 pmol excised per min per mg protein.
As for B3, the “T-ss, pmol excised per min” value is 0 pmol excised per min per mg protein.
The same measure, in the same setting: the result for B4 reads 0 pmol excised per min per mg protein; that for B5, 0 pmol excised per min per mg protein.
Still for that read-out and setting: next, B6: 0 pmol excised per min per mg protein.
Turning to B7, the “T-ss, pmol excised per min” value is reported as 0 pmol excised per min per mg protein.

In a further data set the test system is [^3H]dUMP-labelled DNA. Kind of data set: Uracil inhibition in standard U-ds assay. It is filed as biochemical. The settings on record: 5 mM uracil added to standard U-ds assay. As for the experimental part:
as §2
Regarding B1, the “Inhibition 5 mM Uracil” value worked out at 50%.
For B2, the “Inhibition 5 mM Uracil” value was 25%.
Take B3: the “Inhibition 5 mM Uracil” value was found to be 70%.
Take B4: the “Inhibition 5 mM Uracil” value stood at 80%.
Regarding B5, the “Inhibition 5 mM Uracil” value was 80%.
Same read-out and setting: the result for B6 reads 75%.
Still for that read-out and setting: next, B7: 80%.

A further data set relates to [^3H]dUMP-labelled DNA. Kind of data set: Kinetic parameters on uracil substrate. Type of data set: biochemical. The settings on record: U-ds substrate. On the procedure: The final concentrations of the [^3H]cytosine-DNA (C) and [^3H]thymine-DNA (T) substrates were 6.5 μM and 10 μM, respectively. Release of radioactivity as a function of time was measured at 37° C. These conditions are later referred to as standard conditions. Substrate synthesis and processing of samples for scintillation counting were as described in Krokan and Wittwer (1981) Nucl. Acids Res., 9: 2599-2613. Single-stranded substrate was generated by boiling double-stranded substrate for 10 min, followed by rapid cooling on ice.
The kinetic parameters were determined using six different substrate concentrations to obtain the Km and Vmax values. Duplicate samples were incubated for 20 min using standard assay buffer conditions and substrates as specified. Km and Vmax were calculated using the computer program Enzpack, version 3.0 after the method of Wilkinson (1961) Biochem. J., 80: 324-332.
The term Km denotes the concentration of substrate that gives half-maximal velocity. Consider B1, for which the Km turned out to be 0.16 µM.
With B3, the Km was 0.4 µM.

The data set is the same for the next values; noted with them: U-ds substrate; calculated from Vmax assuming Mr=25000.
B1: the Kcat is 20.42 s⁻¹.
Still for that read-out and setting: next, B3: 1.1 s⁻¹.

Staying with this data set, now noted: U-ss substrate.
With B1, the Michaelis constant (Km) was determined as 0.1 µM.
Still for that read-out and setting: the result for B3 reads 0.23 µM.

Staying with this data set, now noted: U-ss substrate; calculated from Vmax assuming Mr=25000.
With B1, the Kcat is 39.5 s⁻¹.
On the same count and under the same terms, next, B3: 1.48 s⁻¹.
